Results: paper PMC5826766

Tested on: CN(CC(=O)O)C(=O)CN
Assay: concentration-dependent cellular uptake, HPLC-MS/MS, mock-corrected, Km
Assay type: cell-based, Homo sapiens

For “hPHT1 (human peptide/histidine transporter 1, SLC15A4) (Homo sapiens; L14A/L15A/L318A/V319A)”, the Km was 1690 ± 300 µM, the Vmax was 0.0001 µmol/min/mg and the Vmax/Km was 0.0592 µL/min/mg.
